# Results taken from publication PMC5570134.
# B1: Poly-A (ssRNA)
# RNA: AAAAAAAAAAAAAAAAAAAAAAAAAAAAAAAAAAAAAAAA
# B2: Sc1 (structured_RNA)
# RNA: GCUGCGGUGUGGAAGGAGUGGCUGGGUUGCGCAGG
# Biological target: FUS RRM (UniProt P35637 267-373)
# Experiment: EMSA
# Sequence of FUS RRM (P35637 267-373): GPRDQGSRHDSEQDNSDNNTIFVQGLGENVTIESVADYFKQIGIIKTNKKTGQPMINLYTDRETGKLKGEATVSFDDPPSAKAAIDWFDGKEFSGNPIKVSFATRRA
row,Binder,Kd
1,B1,45 ± 2 µM
2,B2,48 ± 3 µM
